Assay results reported in the supplement of paper PMC11316812.
± gives the standard deviation of the averaged measurements.

How the values were obtained:
hTERT-HMEC = assay: percentage of EdU-negative (G0-arrested) nuclei per well, 72 h; higher = more G0 arrest; conditions: reference: sequence is the full UniProt precursor, the tested protein was the secreted form or ectodomain
MCF7 = assay: as above; conditions: reference: sequence is the full UniProt precursor, the tested protein was the secreted form or ectodomain
[1] = protein concentration 0.02102 µM
[2] = protein concentration 0.2102 µM
[3] = protein concentration 0.0225 µM
[4] = protein concentration 0.0229925 µM
[5] = protein concentration 0.229925 µM
[6] = protein concentration 0.0065 µM
[7] = protein concentration 0.010965 µM
[8] = protein concentration 0.10965 µM
[9] = protein concentration 0.03125 µM
[10] = protein concentration 0.3125 µM
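Further: secreted proteins added to cultured cells, EdU pulse at the end, nuclei found by Hoechst imaging, EdU status from nuclear versus surrounding ring intensity ratio, PBS as neutral control.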

MARPGQRWLGKWLVAMVVWALCRLATPLAKNLEPVSWSSLNPKFLSGKGLVIYPKIGDKLDIICPRAEAGRPYEYYKLYLVRPEQAAACSTVLDPNVLVTCNRPEQEIRFTIKFQEFSPNYMGLEFKKHHDYYITSTSNGSLEGLENREGGVCRTRTMKIIMKVGQDPNAVTPEQLTTSRPSKEADNTVKMATQAPGSRGSLGDSDGKHETVNQEEKSGPGASGGSSGDPDGFFNSKVALFAAVGAGCVIFLLIIIFLTVLLLKLRKRHRKHTQQRAAALSLSTLASPKGGSGTAGTEPSDIIIPLRTTENNYCPHYEKVSGDYGHPVYIVQEMPPQSPANIYYKV
percentage of EdU-negative (hTERT-HMEC; [1]): 5.93 ± 0.36% | percentage of EdU-negative (hTERT-HMEC; [2]): 5.52 ± 0.52% | percentage of EdU-negative (MCF7; [1]): 26.6 ± 1.7% | percentage of EdU-negative (MCF7; [2]): 27.1 ± 2.8%

MARPLCTLLLLMATLAGALASSSKEENRIIPGGIYDADLNDEWVQRALHFAISEYNKATEDEYYRRPLQVLRAREQTFGGVNYFFDVEVGRTICTKSQPNLDTCAFHEQPELQKKQLCSFEIYEVPWEDRMSLVNSRCQEA
percentage of EdU-negative (hTERT-HMEC; [3]): 5.17 ± 0.14% | percentage of EdU-negative (hTERT-HMEC; protein concentration 0.225 µM): 6.38 ± 0.58% | percentage of EdU-negative (MCF7; [3]): 25.1 ± 1.4% | percentage of EdU-negative (MCF7; protein concentration 0.225 µM): 24.36 ± 0.2%

MARPNKFLLWFCCFAWLCFPISLGSQASGGEAQIAASAELESGAMPWSLLQHIDERDRAGLLPALFKVLSVGRGGSPRLQPDSRALHYMKKLYKTYATKEGIPKSNRSHLYNTVRLFTPCTRHKQAPGDQVTGILPSVELLFNLDRITTVEHLLKSVLLYNINNSVSFSSAVKCVCNLMIKEPKSSSRTLGRAPYSFTFNSQFEFGKKHKWIQIDVTSLLQPLVASNKRSIHMSINFTCMKDQLEHPSAQNGLFNMTLVSPSLILYLNDTSAQAYHSWYSLHYKRRPSQGPDQERSLSAYPVGEEAAEDGRSSHHRHRRGQETVSSELKKPLGPASFNLSEYFRQFLLPQNECELHDFRLSFSQLKWDNWIVAPHRYNPRYCKGDCPRAVGHRYGSPVHTMVQNIIYEKLDSSVPRPSCVPAKYSPLSVLTIEPDGSIAYKEYEDMIATKCTCR
percentage of EdU-negative (hTERT-HMEC; [4]): 4.1 ± 0.078% | percentage of EdU-negative (hTERT-HMEC; [5]): 4.84 ± 1.5% | percentage of EdU-negative (MCF7; [4]): 24.683 ± 0.017% | percentage of EdU-negative (MCF7; [5]): 29.8 ± 2.2%

MARPVRGGLGAPRRSPCLLLLWLLLLRLEPVTAAAGPRAPCAAACTCAGDSLDCGGRGLAALPGDLPSWTRSLNLSYNKLSEIDPAGFEDLPNLQEVYLNNNELTAVPSLGAASSHVVSLFLQHNKIRSVEGSQLKAYLSLEVLDLSLNNITEVRNTCFPHGPPIKELNLAGNRIGTLELGAFDGLSRSLLTLRLSKNRITQLPVRAFKLPRLTQLDLNRNRIRLIEGLTFQGLNSLEVLKLQRNNISKLTDGAFWGLSKMHVLHLEYNSLVEVNSGSLYGLTALHQLHLSNNSIARIHRKGWSFCQKLHELVLSFNNLTRLDEESLAELSSLSVLRLSHNSISHIAEGAFKGLRSLRVLDLDHNEISGTIEDTSGAFSGLDSLSKLTLFGNKIKSVAKRAFSGLEGLEHLNLGGNAIRSVQFDAFVKMKNLKELHISSDSFLCDCQLKWLPPWLIGRMLQAFVTATCAHPESLKGQSIFSVPPESFVCDDFLKPQIITQPETTMAMVGKDIRFTCSAASSSSSPMTFAWKKDNEVLTNADMENFVHVHAQDGEVMEYTTILHLRQVTFGHEGRYQCVITNHFGSTYSHKARLTVNVLPSFTKTPHDITIRTTTMARLECAATGHPNPQIAWQKDGGTDFPAARERRMHVMPDDDVFFITDVKIDDAGVYSCTAQNSAGSISANATLTVLETPSLVVPLEDRVVSVGETVALQCKATGNPPPRITWFKGDRPLSLTERHHLTPDNQLLVVQNVVAEDAGRYTCEMSNTLGTERAHSQLSVLPAAGCRKDGTTVGIFTIAVVSSIVLTSLVWVCIIYQTRKKSEEYSVTNTDETVVPPDVPSYLSSQGTLSDRQETVVRTEGGPQANGHIESNGVCPRDASHFPEPDTHSVACRQPKLCAGSAYHKEPWKAMEKAEGTPGPHKMEHGGRVVCSDCNTEVDCYSRGQAFHPQPVSRDSAQPSAPNGPEPGGSDQEHSPHHQCSRTAAGSCPECQGSLYPSNHDRMLTAVKKKPMASLDGKGDSSWTLARLYHPDSTELQPASSLTSGSPERAEAQYLLVSNGHLPKACDASPESTPLTGQLPGKQRVPLLLAPKS [Q96JA1]
percentage of EdU-negative (hTERT-HMEC; [6]): 4.69 ± 0.4% | percentage of EdU-negative (hTERT-HMEC; protein concentration 0.065 µM): 8.75 ± 1.2% | percentage of EdU-negative (MCF7; [6]): 25.4 ± 1% | percentage of EdU-negative (MCF7; protein concentration 0.065 µM): 25.8 ± 3.1%

MARRRRRACIALFLVLLFAFGTLMGLRTLKAPDGLPALGPGLELAPFERRPEGAPAPAARAPAAPAAPPPPPPPPRTADPGGSPGPAPAEAEPAPVQSLRVYSDLHAFYYSWYGSPRREGHYIHWDHVMVPHWDPKISASYPRGRHSPPDDLGSSFYPELGPYSSRDPEVLREHMTQLKEAAIGVLVLSWYPPGMADDNGEPSDDLVPAILDTAHQYSIQVAFHIQPYKGRDDITVHDNIKYIIDTYGSHGAFYRYKNSMGKSLPLFYIYDSYLTSPEAWAHLLTPNGPHSIRNTPYDGVFIALLVEEGHTHDILAAGFDGMYTYFASNGFSFGSSHQNWKAVKNFCDANNLMFIPSVGPGYIDTSIRPWNNHNTRNRVNGKYYETALQAALTVRPEIVSITSFNEWHEGTQIEKAIPKKTPTRLYLDYLPHQPSLYLELTRRWAEHFIKEKEQWLM [Q5VSG8]
percentage of EdU-negative (hTERT-HMEC; [3]): 4.99 ± 0.62% | percentage of EdU-negative (hTERT-HMEC; protein concentration 0.225 µM): 9.23 ± 0.73% | percentage of EdU-negative (MCF7; [3]): 25.6 ± 0.44% | percentage of EdU-negative (MCF7; protein concentration 0.225 µM): 28.3 ± 2.4%

MARRSRHRLLLLLLRYLVVALGYHKAYGFSAPKDQQVVTAVEYQEAILACKTPKKTVSSRLEWKKLGRSVSFVYYQQTLQGDFKNRAEMIDFNIRIKNVTRSDAGKYRCEVSAPSEQGQNLEEDTVTLEVLVAPAVPSCEVPSSALSGTVVELRCQDKEGNPAPEYTWFKDGIRLLENPRLGSQSTNSSYTMNTKTGTLQFNTVSKLDTGEYSCEARNSVGYRRCPGKRMQVDDLNISGIIAAVVVVALVISVCGLGVCYAQRKGYFSKETSFQKSNSSSKATTMSENDFKHTKSFII
percentage of EdU-negative (hTERT-HMEC; [3]): 5.13 ± 0.27% | percentage of EdU-negative (hTERT-HMEC; protein concentration 0.225 µM): 4.52 ± 0.093% | percentage of EdU-negative (MCF7; [3]): 24.2 ± 0.62% | percentage of EdU-negative (MCF7; protein concentration 0.225 µM): 25.4 ± 2.1%

MARSLVCLGVIILLSAFSGPGVRGGPMPKLADRKLCADQECSHPISMAVALQDYMAPDCRFLTIHRGQVVYVFSKLKGRGRLFWGGSVQGDYYGDLAARLGYFPSSIVREDQTLKPGKVDVKTDKWDFYCQ
percentage of EdU-negative (hTERT-HMEC; [7]): 5.39 ± 0.091% | percentage of EdU-negative (hTERT-HMEC; [8]): 5.67 ± 0.4% | percentage of EdU-negative (MCF7; [7]): 26.1 ± 1.1% | percentage of EdU-negative (MCF7; [8]): 26.2 ± 1.9%

MARSNLPLALGLALVAFCLLALPRDARARPQERMVGELRDLSPDDPQVQKAAQAAVASYNMGSNSIYYFRDTHIIKAQSQLVAGIKYFLTMEMGSTDCRKTRVTGDHVDLTTCPLAAGAQQEKLRCDFEVLVVPWQNSSQLLKHNCVQM
percentage of EdU-negative (hTERT-HMEC; [9]): 5.74 ± 0.7% | percentage of EdU-negative (hTERT-HMEC; [10]): 6.46 ± 0.57% | percentage of EdU-negative (MCF7; [9]): 26.7 ± 0.57% | percentage of EdU-negative (MCF7; [10]): 25.4 ± 1.2%

MARSPGRAYALLLLLICFNVGSGLHLQVLSTRNENKLLPKHPHLVRQKRAWITAPVALREGEDLSKKNPIAKIHSDLAEERGLKITYKYTGKGITEPPFGIFVFNKDTGELNVTSILDREETPFFLLTGYALDARGNNVEKPLELRIKVLDINDNEPVFTQDVFVGSVEELSAAHTLVMKINATDADEPNTLNSKISYRIVSLEPAYPPVFYLNKDTGEIYTTSVTLDREEHSSYTLTVEARDGNGEVTDKPVKQAQVQIRILDVNDNIPVVENKVLEGMVEENQVNVEVTRIKVFDADEIGSDNWLANFTFASGNEGGYFHIETDAQTNEGIVTLIKEVDYEEMKNLDFSVIVANKAAFHKSIRSKYKPTPIPIKVKVKNVKEGIHFKSSVISIYVSESMDRSSKGQIIGNFQAFDEDTGLPAHARYVKLEDRDNWISVDSVTSEIKLAKLPDFESRYVQNGTYTVKIVAISEDYPRKTITGTVLINVEDINDNCPTLIEPVQTICHDAEYVNVTAEDLDGHPNSGPFSFSVIDKPPGMAEKWKIARQESTSVLLQQSEKKLGRSEIQFLISDNQGFSCPEKQVLTLTVCECLHGSGCREAQHDSYVGLGPAAIALMILAFLLLLLVPLLLLMCHCGKGAKGFTPIPGTIEMLHPWNNEGAPPEDKVVPSFLPVDQGGSLVGRNGVGGMAKEATMKGSSSASIVKGQHEMSEMDGRWEEHRSLLSGRATQFTGATGAIMTTETTKTARATGASRDMAGAQAAAVALNEEFLRNYFTDKAASYTEEDENHTAKDCLLVYSQEETESLNASIGCCSFIEGELDDRFLDDLGLKFKTLAEVCLGQKIDINKEIEQRQKPATETSMNTASHSLCEQTMVNSENTYSSGSSFPVPKSLQEANAEKVTQEIVTERSVSSRQAQKVATPLPDPMASRNVIATETSYVTGSTMPPTTVILGPSQPQSLIVTERVYAPASTLVDQPYANEGTVVVTERVIQPHGGGSNPLEGTQHLQDVPYVMVRERESFLAPSSGVQPTLAMPNIAVGQNVTVTERVLAPASTLQSSYQIPTENSMTARNTTVSGAGVPGPLPDFGLEESGHSNSTITTSSTRVTKHSTVQHSYS [J3KSI6]
percentage of EdU-negative (hTERT-HMEC; [3]): 4.92 ± 0.3% | percentage of EdU-negative (hTERT-HMEC; protein concentration 0.225 µM): 5.13 ± 0.22% | percentage of EdU-negative (MCF7; [3]): 25 ± 1.2% | percentage of EdU-negative (MCF7; protein concentration 0.225 µM): 26.57 ± 0.18%
